Experimental data: the supplement of paper PMC10567573
± gives the standard deviation.

Experiment: protein stability index of a GFP-peptide fusion (GPS, HEK-293T) (PSI 1-6); higher = more stable
Conditions: c terminus: a fixed tail appended
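Note: 24-mer peptide tiles fused after GFP, lentivirally expressed, FACS-sorted into six equal bins by GFP/DsRed ratio, decoded by Illumina sequencing, PSI is the read-weighted mean bin number.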

Sequence | protein stability index (treatment: DMSO) | protein stability index (treatment: MLN4924 1 uM, 8 h)
EQELYNNFVYNSPRGYFHTFAGDT [WASL] | 2.73 ± 0.21 | 2.78 ± 0.32
EQIHLLLSSQCFSNISRPRDNPMC [M1AP] | 2.25 ± 0.43 | 2.33 ± 0.25
EQLLARGYAVNVFDIQQGFDNPQV [NSDHL] | 2.77 ± 0.19 | 3.54 ± 0.24
EQQHYFNTPFQLSIAPPEAEGVVL [PPTC7] | 3.29 ± 0.38 | 3.56 ± 0.43
ERAKMSSSEVGPFVSKIRAVINDI [AUH] | 2.76 ± 0.14 | 2.86 ± 0.31
ERKPAATARLSRRGTSLSPPPESS [KISS1] | 5.16 ± 0.17 | 5.26 ± 0.17
ESIQQTARSIAEQAHELAYDPNYM [PPTC7] | 4.52 ± 0.19 | 4.3 ± 0.37
ESVEQLESRIVEQENAIQTMELRN [SNX8] | 5.41 ± 0.21 | 5.51 ± 0.11
ETAPLTLESLPTDPLLLILSFLDY [FBXO3] | 2.36 ± 0.19 | 2.28 ± 0.19
ETDDPRRYQKYGYIGTHEYPHFSH [OAS1] | 2.88 ± 0.15 | 3 ± 0.19
ETPNSLNTTVIPNGSMAMGTVPGQ [LYSMD4] | 4.43 ± 0.19 | 4.42 ± 0.23
ETRVWHRRDGKWQIVHFHRSGAPS [CAMK2A] | 2.95 ± 0.07 | 3.1 ± 0.25
ETTRNTTGIEESTDGMILGPEDLS [LARP4] | 5.47 ± 0.4 | 5.43 ± 0.28
ETVKLFICELVMALDYLQNQRIIH [STK32A] | 3.39 ± 0.55 | 3.08 ± 0.27
ETVLALVNCISPLKYFSDFRPYFT [DENND6A] | 2.54 ± 0.48 | 3.21 ± 0.83
EVKTRHSEKSQREDEEEEEGENYQ [CHGB] | 5.64 ± 0.28 | 5.48 ± 0.31
EVSQQDPSHGEVGEHKDRIERQWG [ZSCAN9] | 4.69 ± 0.18 | 4.95 ± 0.15
FALASLLQSAPDVKGRVRCLTAGP [ZSWIM9] | 2.02 ± 0.29 | 2.42 ± 0.24
FALGLGFGGVIAFSSYNKQDNNCH [SLC6A17] | 2.01 ± 0.4 | 2.44 ± 0.52
FANLIKEFVIIDCRYPYEYEGGHI [CDC25A] | 2.98 ± 0.51 | 2.76 ± 1.1
FATRPGAIETAMEDLKGHVAETSG [TPRG1] | 4.45 ± 0.31 | 4.81 ± 0.19
FDSSRQRAEGTDIPTVKPLKPRPE [ZC2HC1A] | 5.02 ± 0.099 | 5.09 ± 0.14
FFFAVLHAIYSLSYPMRRSYRYKL [STEAP1] | 2.31 ± 0.4 | 2.43 ± 0.53

Sequence | protein stability index (treatment: DMSO) | protein stability index (treatment: MLN4924 1 uM, 8 h)
FGIVEIDGMLYILGGEDGEKELIS [GAN] | 2.35 ± 0.25 | 2.31 ± 0.29
FIYYENMLLGVPRLRQLKVRNDSC [PKD2L1] | 2.33 ± 0.26 | 2.19 ± 0.3
FKMPWKPTHPSSTHALAEWASRRE [CDC25B] | 3.54 ± 0.12 | 3.63 ± 0.36
FLPDLLIFQMVIICLMCVHSLERA [SMG5] | 3.28 ± 0.47 | 2.59 ± 0.5
FLRQLPFRGDDGIFDDNFIEERKQ [SNX3] | 3.55 ± 0.27 | 3.82 ± 0.35
FLSLDIPIGELYGLSESSGPHTIS [ACSBG2] | 2.39 ± 0.4 | 2.47 ± 0.36
FLSLEASTETLVHVSDEDNNADLC [DLC1] | 5.11 ± 0.27 | 5.2 ± 0.12
FMRTDNTCVNLLLEASNYQMMPYM [KLHL13] | 2.46 ± 0.58 | 2.24 ± 0.36
FMYSGVENKQVVIIHHMRLQAKAL [INTS4] | 2.48 ± 0.33 | 2.52 ± 0.63
FPAKYIYDPWNAPEGIQKVAKCLI [CRY1] | 2.85 ± 0.39 | 2.43 ± 0.32
FPAYTQSTASTTSTTNSTAAKPAA [ZNF207] | 4.68 ± 0.21 | 4.81 ± 0.25
FPFQAMVQFHRHHGQEGSILVTKV [GMPPB] | 2.22 ± 0.37 | 2.07 ± 0.15
FRRGPAPQDQAGPGGAPRVASRNL [CLPTM1] | 4.63 ± 0.17 | 4.25 ± 0.3
FSAHYDAVEAELKSSTVGLVTLND [FAM50A] | 3.86 ± 0.16 | 3.94 ± 0.32
FSEALAEGAVKMGMPSSLAHRIAA [PYCR3] | 3.12 ± 0.42 | 3.06 ± 0.52
FSQSAGLIQHQRIHKGEKPYQCSQ [ZSCAN9] | 3.55 ± 0.071 | 3.68 ± 0.18
FSSERGPRMCRYVRERDRLGNEYP [CDC25A] | 2.93 ± 0.29 | 2.61 ± 0.58
FSVTGGTEEKSSLLMSCLACDTWA [RPAIN] | 2.27 ± 0.26 | 2.27 ± 0.25
FSVVRRCVKLCTGHEYAAKIINTK [CAMK2B] | 2.1 ± 0.35 | 2.21 ± 0.19
FTPPTSLTRAGMSYYNSPGLHVQH [CCDC6] | 2.49 ± 0.52 | 2.84 ± 0.34
FVLQAIGIPGWGFSGWISALVVPK [SCAMP3] | 3.08 ± 0.53 | 2.88 ± 0.37
FWNQGLTWKVLFCSMSATFTLNFF [CLCN6] | 3.31 ± 0.5 | 3.17 ± 0.21
FWRIDEDYPVQVAPLSNGLCCAFS [WSB1] | 2.06 ± 0.43 | 2.41 ± 0.39

Sequence | protein stability index (treatment: DMSO) | protein stability index (treatment: MLN4924 1 uM, 8 h)
FYGHSHHSHHGHPSHQSHSLPNRR [C10orf62] | 3.99 ± 0.29 | 4.21 ± 0.21
FYLALYKQMSFLEKRGCPRTALEY [TCF25] | 2.66 ± 0.4 | 2.01 ± 0.4
GCNSVLIQFATPNDFCSFYNILKT [CARM1] | 3.23 ± 0.62 | 2.84 ± 0.61
GDCDAREEKQRELARKGSLKNGSM [FAM219A] | 5.1 ± 0.26 | 5.35 ± 0.4
GDHERAIDFSPYLEPLGAPQAPAP [CEBPB] | 4.56 ± 0.16 | 4.55 ± 0.24
GDPEEIRMLIHKTEDVNTLDSEKR [ANKRD44] | 5.51 ± 0.16 | 5.33 ± 0.33
GEINVEMDAAPGVDLSRILNEMRD [KRT17] | 4.03 ± 0.22 | 3.99 ± 0.14
GEYIYTGNAKGKILVLKTDSQDLV [RBBP5] | 2.25 ± 0.24 | 2.45 ± 0.57
GFAMYYFTYDPWIGKLLYLEDFFV [SAT1] | 3.16 ± 0.17 | 3.03 ± 0.34
GFLLRYAVIKSNHSYCRMFLQRGA [ASB7] | 2.6 ± 0.37 | 2.34 ± 0.38
GGGPEATLSISDVRTLSEPPDKGE [ZBTB22] | 5.33 ± 0.29 | 5.44 ± 0.31
GGGSSRISSVLAGGSCRAPSTYGG [KRT16] | 3.04 ± 0.59 | 3.46 ± 0.18
GGIVTDTPASNHLPGWEDIESKIP [SLC19A2] | 4.77 ± 0.17 | 4.87 ± 0.12
GGNHFRGTSDYDDVLSCEYYSPIL [KLHL13] | 2.81 ± 0.096 | 2.77 ± 0.18
GGNKKSDGVKESSESTNTTIEDED [CAMK2A] | 5.7 ± 0.087 | 5.53 ± 0.26
GGRKGTAIELQGHNDRVQALSYAQ [WDFY2] | 4.28 ± 0.21 | 4.38 ± 0.19
GGWFCEGSFNGSEKETMQFLNDRL [KRT36] | 3.27 ± 0.23 | 3.17 ± 0.41
GGYLTELEDGFYLTAFICFLVFIL [MFSD9] | 1.98 ± 0.22 | 2.14 ± 0.34
GHGIVGTIVKARDKLYHPECFMCS [PDLIM4] | 2.45 ± 0.069 | 2.67 ± 0.21
GILERYWLSSRAAAIKVNDSVPFH [MYORG] | 2.02 ± 0.42 | 1.78 ± 0.28
GILTLAMIAFFFIIIYLGPMVLMI [CDS2] | 2.7 ± 0.57 | 2.48 ± 0.35
GKEVVKQLEEGLKDTDLARVRRFQ [M1AP] | 4.58 ± 0.35 | 4.62 ± 0.2
GKIRRGAYALPAGLSAPARCLVRC [TRIB3] | 2.47 ± 0.23 | 2.7 ± 0.33

Sequence | protein stability index (treatment: DMSO) | protein stability index (treatment: MLN4924 1 uM, 8 h)
GLPFILRPTSCWQLDWDELETNQQ [M1AP] | 2.62 ± 0.056 | 2.67 ± 0.24
GLQNCVYPWDENHCKEKRKTSLLD [NETO1] | 3.24 ± 0.25 | 3.52 ± 0.28
GMKIDLIDGKGRGVIATKQFSRGD [KMT5A] | 3.49 ± 0.15 | 4 ± 0.63
GMLKEGVRLDRVRGGRQKYKRRID [ESRRG] | 4.19 ± 0.14 | 4.15 ± 0.33
GPAHGPAQEEPWEKKESLGAAQEA [ZNF232] | 5.6 ± 0.22 | 5.49 ± 0.16
GPALWLRSTCVYVCALSALPAGPL [PLEKHN1] | 2.98 ± 0.63 | 3.27 ± 0.74
GPPRAPGRSGWPAGGAPGSPIPSP [HES6] | 4.32 ± 0.18 | 4.26 ± 0.2
GPYDPNSVRISFAKGWGPCYSRQF [SMAD6] | 2.19 ± 0.17 | 2.25 ± 0.18
GQPFNSDDRNTACHHGLVADSLQA [DLC1] | 4.49 ± 0.2 | 4.63 ± 0.1
GQVTPRGLRLRLPRRESLLRGLCR [C6orf223] | 3.24 ± 0.33 | 3.23 ± 0.34
GRARFTTYEVRMRTNLPIFKLKES [SNX12] | 2.27 ± 0.11 | 2.17 ± 0.22
GRKRRQTSMTDFYHSKRRLIFSKR [CDKN1A] | 3.35 ± 0.51 | 4.07 ± 0.38
GSAPNSPMALLTIGSSSEKEIDDV [TFE3] | 5.26 ± 0.28 | 5.55 ± 0.18
GSAVARAVCKATTHEVMGPKKKHL [SNAP91] | 4.58 ± 0.19 | 4.83 ± 0.17
GSSRPCLDFLQEVTRQPRNLQDLC [ASB7] | 3.9 ± 0.31 | 3.97 ± 0.23
GSSYPTTTISYLPHAPPFAGGHPA [JUNB] | 3.12 ± 0.14 | 3.09 ± 0.13
GTPADTGDLSPGHGASAPSVSREA [PWWP2B] | 5.29 ± 0.18 | 5.56 ± 0.22
GTTLRGRSDADLVVFLSPLTTFQD [OAS1] | 2.18 ± 0.4 | 2.28 ± 0.31
GVRDSGSPPLHANTSLHVFVLDEN [PCDHGC5] | 3.51 ± 0.21 | 3.51 ± 0.24
GVYGLQRNLLVENIIDIYKQESTR [TRIM55] | 2.61 ± 0.47 | 2.95 ± 0.49
